Measurements published in the supplement of paper PMC5998384.

Experiments:
HeLa Kyoto [1] = assay: solubility in G1/S (NP-40 vs SDS abundance) (log2 ratio); higher = more soluble; details: cell cycle stage: G1/S
HeLa Kyoto [2] = assay: melting temperature (median over replicates), in situ; higher = more thermally stable
HeLa Kyoto [3] = assay: thermal stability score vs G1/S (z-score of summed log2 fold changes over temperatures); higher = more thermally stable than in G1/S
HeLa Kyoto [4] = assay: solubility change mitosis vs G1/S (difference of NP-40 vs SDS log2 ratios) (log2 ratio difference); higher = more soluble in mitosis
[5] = cell cycle stage: early G1 (4.5 h after nocodazole release)
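Wherever melting temperature (median over replicates), in situ is given: HeLa Kyoto cells synchronized by double thymidine or nocodazole block, proteins quantified by TMT10plex mass spectrometry, three independent biological replicates.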
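Wherever solubility change mitosis vs G1/S (difference of NP-40 vs SDS log2 ratios) is given: synchronized HeLa Kyoto cells (double thymidine block for G1/S, nocodazole release for mitosis), protein amounts in NP-40 versus SDS lysates quantified by mass spectrometry, three biological replicates.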
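Wherever solubility in G1/S (NP-40 vs SDS abundance) is given: HeLa Kyoto cells arrested at G1/S by double thymidine block, proteins quantified by TMT10plex mass spectrometry in mild NP-40 versus SDS extracts, three biological replicates.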
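Wherever thermal stability score vs G1/S (z-score of summed log2 fold changes over temperatures) is given: synchronized HeLa Kyoto cells, proteins quantified by TMT10plex mass spectrometry, three biological replicates, mitosis taken 0.5 h after nocodazole release, G1/S directly after double thymidine block.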

Row | Sequence | solubility in G1/S (log2) (HeLa Kyoto [1]) | melting temperature (HeLa Kyoto [2]; cell cycle stage: G1/S) [°C] | melting temperature (HeLa Kyoto [2]; cell cycle stage: mitosis) [°C] | thermal stability score (HeLa Kyoto [3]; [5]) | thermal stability score (HeLa Kyoto [3]; cell cycle stage: mitosis) | solubility change mitosis (log2) (HeLa Kyoto [4])
1 | MVGYDPKPDGRNNTKFQVAVAGSVSGLVTRALISPFDVIKIRFQLQHERLSRSDPSAKYHGILQASRQILQEEGPTAFWKGHVPAQILSIGYGAVQFLSFEMLTELVHRGSVYDAREFSVHFVCGGLAACMATLTVHPVDVLRTRFAAQGEPKVYNTLRHAVGTMYRSEGPQVFYKGLAPTLIAIFPYAGLQFSCYSSLKHLYKWAIPAEGKKNENLQNLLCGSGAGVISKTLTYPLDLFKKRLQVGGFEHARAAFGQVRRYKGLMDCAKQVLQKEGALGFFKGLSPSLLKAALSTGFMFFSYEFFCNVFHCMNRTASQR [SLC25A19] | -0.155 | 56.4 | 55.6 | -0.746 | -1.27 | -0.0971
2 | MVHQVLYRALVSTKWLAESIRTGKLGPGLRVLDASWYSPGTREARKEYLERHVPGASFFDIEECRDTASPYEMMLPSEAGFAEYVGRLGISNHTHVVVYDGEHLGSFYAPRVWWMFRVFGHRTVSVLNGGFRNWLKEGHPVTSEPSRPEPAVFKATLDRSLLKTYEQVLENLESKRFQLVDSRSQGRFLGTEPEPDAVGLDSGHIRGAVNMPFMDFLTEDGFEKGPEELRALFQTKKVDLSQPLIATCRKGVTACHVALAAYLCGKPDVAVYDGSWSEWFRRAPPESRVSQGKSEKA [TST] | 0.187 | 48.3 | 49.3 | 5.41 | 3.98 | -0.0824
3 | MVISESMDILFRIRGGLDLAFQLATPNEIFLKKALKHVLSDLSTKLSSNALVFRICHSSVYIWPSSDINTIPGELTDASACKNILRFIQFEPEEDIKRKFMRKKDKKLSDMHQIVNIDLMLEMSTSLAAVTPIIERESGGHHYVNMTLPVDAVISVAPEETWGKVRKLLVDAIHNQLTDMEKCILKYMKGTSIVVPEPLHFLLPGKKNLVTISYPSGIPDGQLQAYRKELHDLFNLPHDRPYFKRSNAYHFPDEPYKDGYIRNPHTYLNPPNMETGMIYVVQGIYGYHHYMQDRIDDNGWGCAYRSLQTICSWFKHQGYTERSIPTHREIQQALVDAGDKPATFVGSRQWIGSIEVQLVLNQLIGITSKILFVSQGSEIASQGRELANHFQSEGTPVMIGGGVLAHTILGVAWNEITGQIKFLILDPHYTGAEDLQVILEKGWCGWKGPDFWNKDAYYNLCLPQRPNMI [UFSP2] | -0.0543 | 51.2 | 51 | -0.738 | -0.716 | -0.212
4 | MVKLTAELIEQAAQYTNAVRDRELDLRGYKIPVIENLGATLDQFDAIDFSDNEIRKLDGFPLLRRLKTLLVNNNRICRIGEGLDQALPCLTELILTNNSLVELGDLDPLASLKSLTYLSILRNPVTNKKHYRLYVIYKVPQVRVLDFQKVKLKERQEAEKMFKGKRGAQLAKDIARRSKTFNPGAGLPTDKKKGGPSPGDVEAIKNAIANASTLAEVERLKGLLQSGQIPGRERRSGPTDDGEEEMEEDTVTNGS [SNRPA1] | 0.281 | 54 | 54.2 | 0.145 | -1.77 | 0.21
5 | MVKQIESKTAFQEALDAAGDKLVVVDFSATWCGPCKMIKPFFHSLSEKYSNVIFLEVDVDDCQDVASECEVKCMPTFQFFKKGQKVGEFSGANKEKLEATINELV [TXN] | 0.255 | 57.3 | 58.1 | -0.802 | -2.72 | -0.04
6 | MVLAELYVSDREGSDATGDGTKEKPFKTGLKALMTVGKEPFPTIYVDSQKENERWNVISKSQLKNIKKMWHREQMKSESREKKEAEDSLRREKNLEEAKKITIKNDPSLPEPKCVKIGALEGYRGQRVKVFGWVHRLRRQGKNLMFLVLRDGTGYLQCVLADELCQCYNGVLLSTESSVAVYGMLNLTPKGKQAPGGHELSCDFWELIGLAPAGGADNLINEESDVDVQLNNRHMMIRGENMSKILKARSMVTRCFRDHFFDRGYYEVTPPTLVQTQVEGGATLFKLDYFGEEAFLTQSSQLYLETCLPALGDVFCIAQSYRAEQSRTRRHLAEYTHVEAECPFLTFDDLLNRLEDLVCDVVDRILKSPAGSIVHELNPNFQPPKRPFKRMNYSDAIVWLKEHDVKKEDGTFYEFGEDIPEAPERLMTDTINEPILLCRFPVEIKSFYMQRCPEDSRLTESVDVLMPNVGEIVGGSMRIFDSEEILAGYKREGIDPTPYYWYTDQRKYGTCPHGGYGLGLERFLTWILNRYHIRDVCLYPRFVQRCTP [NARS] | -0.0613 | 52.6 | 53.1 | 3.39 | 4 | -0.124
